Results: EP4748847A1, “PEPTIDE COMPLEX HAVING VEGFR -2 AGONIST ACTIVITY” (Peptidream Inc, priority 2023, dated 2025)
*1 amine or outer side, *2 acyl side, *3 side chain or, on linkers, in order; H or OH if unused. Bridges are numbered along the chain shown (N, C = ends). Primed or numbered codes have the meaning given here. Where no end group is shown, it is not given here. [ ]: non-standard residue; d: D form. CO(CH2CH2O)9CH2CH2CO = O=C(CCOCCOCCOCCOCCOCCOCCOCCOCCOCCC(=O)[*:2])[*:1]; hTyr = N[C@@H](CCc1ccc(O)cc1)C(=O)O; Cha = N[C@@H](CC1CCCCC1)C(=O)O; Chg = N[C@H](C(=O)O)C1CCCCC1; Tle = CC(C)(C)[C@H](N)C(=O)O; 3Py6NH2 = not defined here; 4Py2NH2 = not defined here; F4aao = not defined here; Ahp′ = not defined here; Atb = not defined here; Yph = not defined here

B1: Peptide complex Dimer Structure No. 43 (peptide)
peptide: {CH2CO}-WW[Tle]DVKDDLY[F4G]VDCG-NH2
modifications: thioether N-14; also: homodimer: Lys6 joined to Lys6 of second copy by cPEG17c (Linker Structure No. 4)
B2: Peptide complex Dimer Structure No. 45 (peptide)
peptide: {CH2CO}-WW[Tle]DVKDDLY[F4G][hTyr]DCG-NH2
modifications: thioether N-14; also: homodimer: Lys6 joined to Lys6 of second copy by cPEG17c (Linker Structure No. 4)
B3: Peptide complex Dimer Structure No. 46 (peptide)
peptide: {CH2CO}-[W7N]W[Tle]DVKDDLYF[hTyr]DCG-NH2
modifications: thioether N-14; also: homodimer: Lys6 joined to Lys6 of second copy by cPEG17c (Linker Structure No. 4)
B4: Peptide complex Dimer Structure No. 47 (peptide)
peptide: {CH2CO}-WW[Tle]DVKNDLYF[hTyr]DCG-NH2
modifications: thioether N-14; also: homodimer: Lys6 joined to Lys6 of second copy by cPEG17c (Linker Structure No. 4)
B5: Peptide complex Dimer Structure No. 49 (peptide)
peptide: {CH2CO}-WW[Tle]DVKDD[Atb]YF[hTyr]DCG-NH2
modifications: thioether N-14; reading uncertain; also: homodimer: Lys6 joined to Lys6 of second copy by OCOPEG13OCO (Linker Structure No. 5)
B6: Peptide complex Dimer Structure No. 51 (peptide)
peptide: {CH2CO}-WW[Tle]DVKDDLY[F4G]VDCG-NH2
modifications: thioether N-14; also: homodimer: Lys6 joined to Lys6 of second copy by OCOPEG17OCO (Linker Structure No. 6)
B7: Peptide complex Dimer Structure No. 52 (peptide)
peptide: {CH2CO}-WW[Tle]DVKDD[Atb]YF[hTyr]DCG-NH2
modifications: thioether N-14; reading uncertain; also: homodimer: Lys6 joined to Lys6 of second copy by OCOPEG17OCO (Linker Structure No. 6)
B8: Peptide complex Dimer Structure No. 53 (peptide)
peptide: {CH2CO}-WW[Tle]DVKDD[Atb]Y[F4G][hTyr]DCG-NH2
modifications: thioether N-14; reading uncertain; also: dimer: Lys6 joined to Lys6 of second copy by OCOPEG17OCO (Linker Structure No. 6)
B9: Peptide complex Dimer Structure No. 2 (peptide)
peptide: {CH2CO}-WWVDV[Ahp′]DDLYFVDCG
modifications: thioether N-14; reading uncertain; also: dimer joined at Gly15 C-termini by PEG12c-K-PEG12c
B10: Peptide complex Dimer Structure No. 5 (peptide)
peptide: {CH2CO}-WWVDV[Cha]DDLYFVDCG
modifications: thioether N-14; also: dimer: C-terminus joined to second copy by PEG12c-K-PEG12c
B11: Peptide complex Dimer Structure No. 27 (peptide)
peptide: {CH2CO}-WW[Tle]D[alT]KDDLYF[hTyr]DCG-NH2
modifications: thioether N-14; not fully specified (residue 6); also: homodimer: Lys6 joined to Lys6 of second copy by cPEG17c (Linker Structure No. 4)
B12: Peptide complex Dimer Structure No. 29 (peptide)
peptide: {CH2CO}-WW[Tle]DVKDDNYF[hTyr]DCG-NH2
modifications: thioether N-14; not fully specified (residues 5, 6); also: dimer joined at Lys6 side chains by cPEG17c
B13: Peptide complex Dimer Structure No. 31 (peptide)
peptide: {CH2CO}-WW[Tle]DVKDDLYF[Chg]DCG-NH2
modifications: thioether N-14; not fully specified (residue 6); also: homodimer: Lys6 joined to Lys6 of second copy by cPEG17c (Linker Structure No. 4)
B14: Peptide complex Dimer Structure No. 33 (peptide)
peptide: {CH2CO}-WW[Tle]DVKDDLYF[hTyr]SCG-NH2
modifications: thioether N-14; also: homodimer: Lys6 joined to Lys6 of second copy by cPEG17c (Linker Structure No. 4)
B15: Peptide complex Dimer Structure No. 42 (peptide)
peptide: {CH2CO}-WWVDVKDDLYFVDCG-NH2
modifications: thioether N-14; also: homodimer: Lys6 joined to Lys6 of second copy by cPEG17c (Linker Structure No. 4)
B16: Peptide complex Dimer Structure No. 16 (peptide)
peptide: {CH2CO}-WWVDVKDDLY[Yph]VDCG-NH2
modifications: thioether N-14; not fully specified (residue 6); reading uncertain; also: homodimer: Lys6 joined to Lys6 of second copy by cPEG17c (Linker Structure No. 4)
B17: Peptide complex Dimer Structure No. 17 (peptide)
peptide: {CH2CO}-WWVDVKDDLY[F4G]VDCG-NH2
modifications: thioether N-14; not fully specified (residue 6); also: homodimer: Lys6 joined to Lys6 of second copy by cPEG17c (Linker Structure No. 4)
B18: Peptide complex Dimer Structure No. 18 (peptide)
peptide: {CH2CO}-WWVDVKDDLYF[hTyr]DCG-NH2
modifications: thioether N-14; not fully specified (residue 6); also: homodimer: Lys6 joined to Lys6 of second copy by cPEG17c (Linker Structure No. 4)
B19: Peptide complex Dimer Structure No. 19 (peptide)
peptide: {CH2CO}-WW[Tle]DVKDDLY[Yph]VDCG-NH2
modifications: thioether N-14; not fully specified (residue 6); reading uncertain; also: homodimer: Lys6 joined to Lys6 of second copy by cPEG17c (Linker Structure No. 4)
B20: Peptide complex Dimer Structure No. 20 (peptide)
peptide: {CH2CO}-WW[Tle]DVKDDLY[Yph][hTyr]DCG-NH2
modifications: thioether N-14; not fully specified (residue 6); reading uncertain; also: homodimer: Lys6 joined to Lys6 of second copy by cPEG17c (Linker Structure No. 4)
B21: Peptide complex Dimer Structure No. 21 (peptide)
peptide: {CH2CO}-[Hcit]W[Tle]DVKDDLYF[hTyr]DCG-NH2
modifications: thioether N-14; not fully specified (residue 6); also: homodimer: Lys6 joined to Lys6 of second copy by cPEG17c (Linker Structure No. 4)
B22: Peptide complex Dimer Structure No. 22 (peptide)
peptide: {CH2CO}-[4Py2NH2]W[Tle]DVKDDLYF[hTyr]DCG-NH2
modifications: thioether N-14; not fully specified (residue 6); reading uncertain; also: homodimer: Lys6 joined to Lys6 of second copy by cPEG17c (Linker Structure No. 4)
B23: Peptide complex Dimer Structure No. 23 (peptide)
peptide: {CH2CO}-[3Py6NH2]W[Tle]DVKDDLYF[hTyr]DCG-NH2
modifications: thioether N-14; not fully specified (residue 6); reading uncertain; also: homodimer: Lys6 joined to Lys6 of second copy by cPEG17c (Linker Structure No. 4)
B24: Peptide complex Dimer Structure No. 24 (peptide)
peptide: {CH2CO}-[F4aao]W[Tle]DVKDDLYF[hTyr]DCG-NH2
modifications: thioether N-14; not fully specified (residue 6); reading uncertain; also: homodimer: Lys6 joined to Lys6 of second copy by cPEG17c (Linker Structure No. 4)

Target: T1, VEGFR-2 (human, UniProt P35968 20-1356)
T1 sequence (P35968 20-1356): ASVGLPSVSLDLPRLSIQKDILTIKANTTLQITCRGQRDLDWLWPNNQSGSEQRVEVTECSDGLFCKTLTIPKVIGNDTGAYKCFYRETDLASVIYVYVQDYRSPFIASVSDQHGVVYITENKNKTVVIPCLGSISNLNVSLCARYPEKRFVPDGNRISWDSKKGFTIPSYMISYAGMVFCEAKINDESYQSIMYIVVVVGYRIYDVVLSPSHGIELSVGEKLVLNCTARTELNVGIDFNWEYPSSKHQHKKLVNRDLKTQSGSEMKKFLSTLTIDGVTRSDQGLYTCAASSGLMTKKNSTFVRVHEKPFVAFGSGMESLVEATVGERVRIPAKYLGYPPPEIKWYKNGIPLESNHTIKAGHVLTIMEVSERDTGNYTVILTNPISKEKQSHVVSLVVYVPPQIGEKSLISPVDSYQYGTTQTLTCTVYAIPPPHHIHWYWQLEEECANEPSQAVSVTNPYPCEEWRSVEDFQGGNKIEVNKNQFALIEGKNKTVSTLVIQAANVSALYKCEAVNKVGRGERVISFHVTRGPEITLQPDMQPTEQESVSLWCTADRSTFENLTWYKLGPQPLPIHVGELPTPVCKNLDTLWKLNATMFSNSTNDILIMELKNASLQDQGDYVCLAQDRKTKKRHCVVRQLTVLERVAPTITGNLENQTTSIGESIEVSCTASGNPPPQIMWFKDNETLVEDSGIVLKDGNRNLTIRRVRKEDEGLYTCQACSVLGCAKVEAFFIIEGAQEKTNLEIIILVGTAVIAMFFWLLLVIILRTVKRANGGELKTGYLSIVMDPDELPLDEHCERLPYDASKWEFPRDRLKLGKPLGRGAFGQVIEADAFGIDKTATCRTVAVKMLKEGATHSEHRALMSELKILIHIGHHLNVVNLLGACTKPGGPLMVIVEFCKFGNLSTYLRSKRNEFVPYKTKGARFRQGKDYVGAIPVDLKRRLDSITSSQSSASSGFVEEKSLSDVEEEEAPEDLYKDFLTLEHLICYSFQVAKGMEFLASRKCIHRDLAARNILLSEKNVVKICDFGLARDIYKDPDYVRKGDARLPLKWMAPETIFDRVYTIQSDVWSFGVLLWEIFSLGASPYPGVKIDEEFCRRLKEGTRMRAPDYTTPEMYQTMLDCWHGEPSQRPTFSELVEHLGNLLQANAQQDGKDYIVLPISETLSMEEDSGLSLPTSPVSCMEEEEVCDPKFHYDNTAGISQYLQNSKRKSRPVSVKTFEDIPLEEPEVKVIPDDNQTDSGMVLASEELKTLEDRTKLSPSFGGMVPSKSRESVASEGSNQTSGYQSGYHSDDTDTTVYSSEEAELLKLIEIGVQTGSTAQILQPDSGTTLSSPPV
Experiment: cell-based or functional assay

| Binder | proliferation (HUVEC, CellTiter-Glo) |
| --- | --- |
| B1 | ≥ 50 % activity at 5 nM |
| B2 | ≥ 50 % activity at 5 nM |
| B3 | ≥ 50 % activity at 1.25 nM |
| B4 | ≥ 50 % activity at 1.25 nM |
| B5 | ≥ 50 % activity at 5 nM |
| B6 | ≥ 50 % activity at 5 nM |
| B7 | ≥ 50 % activity at 5 nM |
| B8 | ≥ 50 % activity at 5 nM |
| B9 | < 50 % activity at 100 nM |
| B10 | < 50 % activity at 100 nM |
| {CH2CO}-WWVDVK(CO(CH2CH2O)9CH2CH2CO)DDLYFVDCG-NH2 (thioether N-14; also: dimer: Lys6 joined to Lys6 of second copy by cPEG9c) [Peptide complex Dimer Structure No. 13] | < 50 % activity at 100 nM |
| B11 | ≥ 50 % activity at 10 nM |
| B12 | ≥ 50 % activity at 10 nM |
| B13 | ≥ 50 % activity at 10 nM |
| B14 | ≥ 50 % activity at 10 nM |
| B15 | ≥ 50 % activity at 1.25 nM |

Target: T1, VEGFR-2
Experiment: cell-based or functional assay
Remark: another data set of the same source

| Binder | pERK Assay Results (AlphaLISA p-Erk1/2, HUVEC) |
| --- | --- |
| B1 | ≥ 50 % activity at 5 nM |
| B2 | ≥ 50 % activity at 20 nM |
| B3 | ≥ 50 % activity at 20 nM |
| B4 | ≥ 50 % activity at 20 nM |
| B5 | ≥ 50 % activity at 20 nM |
| B6 | ≥ 50 % activity at 5 nM |
| B7 | ≥ 50 % activity at 5 nM |
| B8 | ≥ 50 % activity at 5 nM |
| B11 | ≥ 50 % activity at 10 nM |
| B12 | ≥ 50 % activity at 10 nM |
| B13 | ≥ 50 % activity at 10 nM |
| B14 | ≥ 50 % activity at 10 nM |
| B15 | ≥ 50 % activity at 20 nM |

Target: T1, VEGFR-2
Experiment: cell-based or functional assay
Remark: another data set of the same source

| Binder | pERK Assay Results (AlphaLISA p-Erk1/2, HUVEC) |
| --- | --- |
| B9 | ≥ 50 % activity at 100 nM |
| B10 | ≥ 50 % activity at 10 nM |
| {CH2CO}-WWVDVK(CO(CH2CH2O)9CH2CH2CO)DDLYFVDCG-NH2 (thioether N-14; also: dimer: Lys6 joined to Lys6 of second copy by cPEG9c) [Peptide complex Dimer Structure No. 13] | ≥ 50 % activity at 10 nM |
| B16 | ≥ 50 % activity at 100 nM |
| B17 | ≥ 50 % activity at 100 nM |
| B18 | ≥ 50 % activity at 100 nM |
| B19 | ≥ 50 % activity at 100 nM |
| B20 | ≥ 50 % activity at 10 nM |
| B21 | ≥ 50 % activity at 10 nM |
| B22 | ≥ 50 % activity at 10 nM |
| B23 | ≥ 50 % activity at 10 nM |
| B24 | ≥ 50 % activity at 10 nM |
